{
  "source": "paper PMC3950709",
  "about": "(Nucleic Acids Research, 2013)",
  "molecules": {"B1": {"name": "human IFIT3 (hIFIT3), recombinant (natural protein, UniProt O14879 1-490, looked up)", "chain": "MSEVTKNSLEKILPQLKCHFTWNLFKEDSVSRDLEDRVCNQIEFLNTEFKATMYNLLAYIKHLDGNNEAALECLRQAEELIQQEHADQAEIRSLVTWGNYAWVYYHLGRLSDAQIYVDKVKQTCKKFSNPYSIEYSELDCEEGWTQLKCGRNERAKVCFEKALEEKPNNPEFSSGLAIAMYHLDNHPEKQFSTDVLKQAIELSPDNQYVKVLLGLKLQKMNKEAEGEQFVEEALEKSPCQTDVLRSAAKFYRRKGDLDKAIELFQRVLESTPNNGYLYHQIGCCYKAKVRQMQNTGESEASGNKEMIEALKQYAMDYSNKALEKGLNPLNAYSDLAEFLETECYQTPFNKEVPDAEKQQSHQRYCNLQKYNGKSEDTAVQHGLEGLSISKKSTDKEEIKDQPQNVSENLLPQNAPNYWYLQGLIHKQNGDLLQAAKCYEKELGRLLRDAPSGIGSIFLSASELEDGSEEMGQGAVSSSPRELLSNSEQLN"}, "B2": {"name": "cap0 62-nt β-globin(G) RNA (ssRNA)", "RNA": "GACACUUGCUUUUGACACAACUGUGUUUACUUGCAAUCCCCCAAAACAGACAGAAUGGUGCA", "modifications": "m7Gppp cap0"}, "B3": {"name": "cap1 62-nt β-globin(G) RNA (ssRNA)", "RNA": "B2 RNA", "modifications": "m7GpppGm cap1"}, "B4": {"name": "human IFIT2 (hIFIT2), recombinant (natural protein, UniProt P09913 1-472, looked up)", "chain": "MSENNKNSLESSLRQLKCHFTWNLMEGENSLDDFEDKVFYRTEFQNREFKATMCNLLAYLKHLKGQNEAALECLRKAEELIQQEHADQAEIRSLVTWGNYAWVYYHMGRLSDVQIYVDKVKHVCEKFSSPYRIESPELDCEEGWTRLKCGGNQNERAKVCFEKALEKKPKNPEFTSGLAIASYRLDNWPPSQNAIDPLRQAIRLNPDNQYLKVLLALKLHKMREEGEEEGEGEKLVEEALEKAPGVTDVLRSAAKFYRRKDEPDKAIELLKKALEYIPNNAYLHCQIGCCYRAKVFQVMNLRENGMYGKRKLLELIGHAVAHLKKADEANDNLFRVCSILASLHALADQYEDAEYYFQKEFSKELTPVAKQLLHLRYGNFQLYQMKCEDKAIHHFIEGVKINQKSREKEKMKDKLQKIAKMRLSKNGADSEALHVLAFLQELNEKMQQADEDSERGLESGSLIPSASSWNGE"}, "B5": {"name": "human IFIT1 (hIFIT1), recombinant wild type (natural protein, UniProt P09914 1-478, looked up)", "chain": "MSTNGDDHQVKDSLEQLRCHFTWELSIDDDEMPDLENRVLDQIEFLDTKYSVGIHNLLAYVKHLKGQNEEALKSLKEAENLMQEEHDNQANVRSLVTWGNFAWMYYHMGRLAEAQTYLDKVENICKKLSNPFRYRMECPEIDCEEGWALLKCGGKNYERAKACFEKVLEVDPENPESSAGYAISAYRLDGFKLATKNHKPFSLLPLRQAVRLNPDNGYIKVLLALKLQDEGQEAEGEKYIEEALANMSSQTYVFRYAAKFYRRKGSVDKALELLKKALQETPTSVLLHHQIGLCYKAQMIQIKEATKGQPRGQNREKLDKMIRSAIFHFESAVEKKPTFEVAHLDLARMYIEAGNHRKAEENFQKLLCMKPVVEETMQDIHFHYGRFQEFQKKSDVNAIIHYLKAIKIEQASLTRDKSINSLKKLVLRKLRRKALDLESLSLLGFVYKLEGNMNEALEYYERALRLAADFENSVRQGP"}, "B6": {"name": "hIFIT1 W147L (natural protein, human, UniProt P09914 1-478, looked up)", "chain": "B5 chain with W147L"}, "B7": {"name": "hIFIT1 Y50A (natural protein, human, UniProt P09914 1-478, looked up)", "chain": "B5 chain with Y50A"}, "B8": {"name": "hIFIT1 F45A/Y50A (natural protein, human, UniProt P09914 1-478, looked up)", "chain": "B5 chain with F45A, Y50A"}, "B9": {"name": "hIFIT1 Y218A (natural protein, human, UniProt P09914 1-478, looked up)", "chain": "B5 chain with Y218A"}, "B10": {"name": "hIFIT1 F45A (natural protein, human, UniProt P09914 1-478, looked up)", "chain": "B5 chain with F45A"}},
  "key": {"[1]": {"molecular_target": "native rabbit IFIT1B (native rIFIT1B) (rabbit (endogenous in rabbit reticulocyte lysate))", "experiment": "native gel or EMSA"}, "[2]": {"molecular_target": "rabbit IFIT1B (rIFIT1B), recombinant (rabbit)", "experiment": "native gel or EMSA"}, "native gel or EMSA [3]": {"molecular_target": "the molecule itself", "experiment": "native gel or EMSA"}, "hIFIT2": {"molecular_target": "T1, hIFIT2 (Homo sapiens, UniProt P09913 1-472)", "T1 sequence": "B4 chain", "experiment": "EMSA"}, "hIFIT5": {"molecular_target": "T2, hIFIT5 (Homo sapiens, UniProt Q13325 1-482)", "T2 sequence": "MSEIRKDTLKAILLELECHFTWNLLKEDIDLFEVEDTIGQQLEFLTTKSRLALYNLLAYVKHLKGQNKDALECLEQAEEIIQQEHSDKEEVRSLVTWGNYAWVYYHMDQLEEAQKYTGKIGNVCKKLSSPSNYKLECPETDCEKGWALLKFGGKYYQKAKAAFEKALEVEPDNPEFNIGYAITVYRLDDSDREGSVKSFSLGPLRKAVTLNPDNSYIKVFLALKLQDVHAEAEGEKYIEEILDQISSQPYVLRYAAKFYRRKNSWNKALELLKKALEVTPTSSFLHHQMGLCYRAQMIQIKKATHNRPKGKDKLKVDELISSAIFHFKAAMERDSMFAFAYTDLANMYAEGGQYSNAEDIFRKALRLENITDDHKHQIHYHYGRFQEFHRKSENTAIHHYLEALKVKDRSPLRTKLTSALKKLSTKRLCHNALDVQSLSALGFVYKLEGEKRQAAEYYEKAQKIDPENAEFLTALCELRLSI", "experiment": "EMSA"}, "hIFIT3": {"molecular_target": "T3, hIFIT3 (Homo sapiens, UniProt O14879 1-490)", "T3 sequence": "B1 chain", "experiment": "EMSA"}, "hIFIT1 [4]": {"molecular_target": "T4, hIFIT1 (Homo sapiens, UniProt P09914 1-478)", "T4 sequence": "B5 chain", "experiment": "EMSA"}, "hIFIT1 [5]": {"molecular_target": "T4, hIFIT1", "experiment": "EMSA", "remark": "listed apart in the source"}, "native gel or EMSA [6]": {"molecular_target": "the molecule itself", "experiment": "native gel or EMSA", "remark": "listed apart in the source"}},
  "note": "Numbering of substitutions follows the chain as printed. Names and notes keep the numbering of the source. Where two headings read alike, the source gives them in different places.",
  "data": [
    {"molecule": "native rabbit IFIT1B (native rIFIT1B) (natural protein)", "values": [
      {"measurement": "stoichiometry N", "setting": "[1]", "result": 2}
    ]},
    {"molecule": "rabbit IFIT1B (rIFIT1B), recombinant (natural protein)", "values": [
      {"measurement": "stoichiometry N", "setting": "[2]", "result": 2}
    ]},
    {"molecule": "B1", "values": [
      {"measurement": "binding result", "setting": "native gel or EMSA [3]", "result": "binds"}
    ]},
    {"molecule": "B2", "values": [
      {"measurement": "binding result", "setting": "hIFIT2", "result": "no binding"},
      {"measurement": "binding result", "setting": "hIFIT5", "result": "no binding"},
      {"measurement": "binding result", "setting": "hIFIT3", "result": "no binding"},
      {"measurement": "binding result", "setting": "hIFIT1 [4]", "result": "binds"}
    ]},
    {"molecule": "B3", "values": [
      {"measurement": "binding result", "setting": "hIFIT1 [5]", "result": "no binding"},
      {"measurement": "binding result", "setting": "hIFIT2", "result": "no binding"},
      {"measurement": "binding result", "setting": "hIFIT5", "result": "no binding"},
      {"measurement": "binding result", "setting": "hIFIT3", "result": "no binding"}
    ]},
    {"molecule": "B4", "values": [
      {"measurement": "stoichiometry N", "setting": "native gel or EMSA [3]", "result": 2}
    ]},
    {"molecule": "B5", "values": [
      {"measurement": "binding result", "setting": "native gel or EMSA [6]", "result": "binds"}
    ]},
    {"molecule": "B6", "values": [
      {"measurement": "binding result", "setting": "native gel or EMSA [3]", "result": "binds"}
    ]},
    {"molecule": "B7", "values": [
      {"measurement": "binding result", "setting": "native gel or EMSA [3]", "result": "binds"}
    ]},
    {"molecule": "B8", "values": [
      {"measurement": "binding result", "setting": "native gel or EMSA [3]", "result": "binds"}
    ]},
    {"molecule": "B9", "values": [
      {"measurement": "binding result", "setting": "native gel or EMSA [3]", "result": "binds"}
    ]},
    {"molecule": "B10", "values": [
      {"measurement": "binding result", "setting": "native gel or EMSA [3]", "result": "binds"}
    ]}
  ]
}
